Measured values: paper PMC6669743

Molecular target: HAdV-5T* virion (mutant HAdV-5 unable to bind to human or murine FX) (human adenovirus 5) (UniProt P04133)
Assay: co-sedimentation; 2 x 10^11 vp of virus incubated with 250 uL C57BL/6 mouse serum for 30 min at 37 C; virions and bound proteins purified by CsCl gradient ultracentrifugation without cross-linking; LC-MS/MS with label-free quantification normalised to hexon

Substance | fold change of bound amount against HAdV-5 [fold]
complement component C3 (mouse) (from UniProt P01027) (natural protein) | 40.2
complement component C4b (mouse) (from UniProt P01029) (natural protein) | 87.8
